Data on three molecules can be found in US20240409627A1.

One experiment addresses recombinant inhibin A (UniProt P05111). Nature of the experiment: cell-based or functional assay.
Experiment [1] deals with HA-tagged endoglin (endoglin-L) (UniProt P17813). Briefly: patch/FRAP on live COS7 cells; HA-endoglin immobilized by IgG cross-linking, Fab'-labeled myc-ALK1 measured; no inhibin.
The target is the same in experiment [2]. Nature of the experiment: patch/FRAP on live COS7 cells; HA-endoglin immobilized by IgG cross-linking, Fab'-labeled myc-ALK1 measured; in the presence of 4 nM inhibin A.
Experiment [3] addresses T1, endoglin on HMEC-1 human microvascular endothelial cells (human) (UniProt P17813).
T1 sequence (looked up): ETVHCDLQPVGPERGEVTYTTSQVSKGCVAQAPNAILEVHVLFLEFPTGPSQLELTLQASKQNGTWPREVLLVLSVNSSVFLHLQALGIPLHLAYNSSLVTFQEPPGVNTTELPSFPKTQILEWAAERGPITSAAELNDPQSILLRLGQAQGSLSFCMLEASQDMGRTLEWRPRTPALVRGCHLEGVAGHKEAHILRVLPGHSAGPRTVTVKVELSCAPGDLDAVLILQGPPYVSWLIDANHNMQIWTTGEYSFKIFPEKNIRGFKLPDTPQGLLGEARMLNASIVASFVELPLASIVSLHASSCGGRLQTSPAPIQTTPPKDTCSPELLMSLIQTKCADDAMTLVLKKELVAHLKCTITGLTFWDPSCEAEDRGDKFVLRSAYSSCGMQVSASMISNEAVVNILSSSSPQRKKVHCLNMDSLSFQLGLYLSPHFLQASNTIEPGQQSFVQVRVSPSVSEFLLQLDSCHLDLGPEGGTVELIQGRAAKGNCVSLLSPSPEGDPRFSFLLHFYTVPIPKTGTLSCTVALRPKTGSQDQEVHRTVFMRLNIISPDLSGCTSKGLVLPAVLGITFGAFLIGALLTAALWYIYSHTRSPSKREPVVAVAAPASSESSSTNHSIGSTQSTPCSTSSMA
Nature of the experiment: cell-based or functional assay.

Chain of UniProt P05111 (P05111 233-366 limits assumed, chain 1 of 2): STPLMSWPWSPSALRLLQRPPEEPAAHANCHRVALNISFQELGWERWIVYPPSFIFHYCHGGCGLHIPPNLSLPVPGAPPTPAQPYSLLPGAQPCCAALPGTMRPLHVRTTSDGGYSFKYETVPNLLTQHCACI
Chain of UniProt P05111 (P08476 311-426 limits assumed, chain 2 of 2, further chain): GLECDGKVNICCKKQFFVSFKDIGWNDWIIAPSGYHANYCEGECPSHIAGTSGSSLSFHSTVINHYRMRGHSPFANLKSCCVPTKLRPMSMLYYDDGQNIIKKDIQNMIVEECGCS

For “ALK1-Fc, a human chimeric ALK1 protein (from UniProt P37023 22-118) (Fc fusion)”, the fold decrease in inhibin A induced permeability of HMEC-1 monolayer at 4 h (FITC-dextran), 10 ng/mL ALK1-Fc in the experiment with recombinant inhibin A stood at 1.5 times.
As for “myc-tagged ALK1 (from UniProt P37023 22-503) (receptor)”, the reduction in Rf (mobile fraction) in experiment [1] came out at 45%; in experiment [2] it was 70%.

B1: Tracon 105 (TRC105), a humanized endoglin monoclonal antibody (antibody, INN chains, looked up, V domains shown)
VH: EVKLEESGGGLVQPGGSMKLSCAASGFTFSDAWMDWVRQSPEKGLEWVAEIRSKASNHATYYAESVKGRFTISRDDSKSSVYLQMNSLRAEDTGIYYCTRWRRFFDSWGQGTTLTVSS
VL: QIVLSQSPAILSASPGEKVTMTCRASSSVSYMHWYQQKPGSSPKPWIYATSNLASGVPVRFSGSGSGTSYSLTISRVEAEDAATYYCQQWSSNPLTFGAGTKLELK
B1: the fold decrease in inhibin A induced permeability of HMEC-1 monolayer at 4 h (FITC-dextran), 100 µg/mL TRC105 in experiment [3] stood at 2.2 times.
